From publication PMC2699419 (2007)

Tests used:
[1] = molecular target: T1, GM-CSF receptor alpha chain (Balb/c form, Asp227; on Ba/F3 cells expressing beta chain) (Mus musculus, UniProt Q00941); test: flow cytometry cell binding, non-linear regression
T1 chain: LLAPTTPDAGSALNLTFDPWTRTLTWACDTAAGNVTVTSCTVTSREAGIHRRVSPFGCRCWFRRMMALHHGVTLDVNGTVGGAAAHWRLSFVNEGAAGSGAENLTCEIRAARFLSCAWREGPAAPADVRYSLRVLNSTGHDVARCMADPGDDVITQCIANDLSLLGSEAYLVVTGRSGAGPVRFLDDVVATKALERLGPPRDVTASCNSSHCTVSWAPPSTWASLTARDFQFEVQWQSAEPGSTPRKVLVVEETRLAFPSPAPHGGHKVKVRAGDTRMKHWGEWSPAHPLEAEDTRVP

[2] = molecular target: T2, GM-CSF receptor alpha chain (C57BL/6 form, Gly227; on Ba/F3 cells expressing beta chain) (Mus musculus, UniProt Q00941); test: flow cytometry cell binding, non-linear regression
T2 chain: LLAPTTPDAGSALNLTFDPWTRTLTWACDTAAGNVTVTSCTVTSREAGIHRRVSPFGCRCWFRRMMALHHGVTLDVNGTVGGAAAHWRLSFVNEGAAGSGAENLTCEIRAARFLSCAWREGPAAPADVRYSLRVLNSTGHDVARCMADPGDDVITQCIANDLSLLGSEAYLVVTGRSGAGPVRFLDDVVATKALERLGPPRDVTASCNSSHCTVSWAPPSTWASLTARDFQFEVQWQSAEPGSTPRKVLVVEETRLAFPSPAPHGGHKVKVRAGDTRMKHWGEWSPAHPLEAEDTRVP

B1: GM-CSF-Fc fusion (GM-Fc) (protein)
chain: APTRSPITVTRPWKHVEAIKEALNLLDDMPVTLNEEVEVVSNEFSFKKLTCVQTRLKIFEQGLRGNFTKLKGALNMTASYYQTYCPPTPETDCETQVTTYADFIDSLKTFLTDIPFECKKPGQK
modifications: GM-CSF fused to mutated human IgG1 Fc, Ba/F3 cells co-expressing beta chain
Question: Which Kd [1] does the source give for B1 here?
Answer: Its Kd is 15.6 nM.

Question: What about the Kd [2] of the same binder?
Answer: Its Kd is 19.6 nM.
